Molecular target: GST-Vif wild type (HIV-1, UniProt P69723 1-192)
Assay: EMSA

Chain of GST-Vif wild type (P69723 whole entry): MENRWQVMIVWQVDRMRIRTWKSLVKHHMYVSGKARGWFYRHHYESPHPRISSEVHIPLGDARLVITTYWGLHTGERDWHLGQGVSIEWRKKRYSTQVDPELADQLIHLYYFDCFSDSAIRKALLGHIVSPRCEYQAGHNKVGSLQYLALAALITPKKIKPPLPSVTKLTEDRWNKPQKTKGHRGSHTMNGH

## AAAAAAAAAAAAAAAAAAAAAAAAAAAAAAAAAAAAAAAA (ssRNA) [poly(rA40)]
  binding result: binds
